Test results reported in PMC8134430.

Target: Recombinant pseudopilin domain of Naegleria gruberi GspG1 (NgGspG1) lacking the N-terminal hydrophobic part (Naegleria gruberi)
Test: MST; Monolith NT.115; 10 nM protein labelled with Red-NHS dye NT-647, unlabelled protein titrated to 50 uM; 50 mM HEPES, 50 mM NaCl

**Q.** “Recombinant pseudopilin domain of Naegleria gruberi GspG1 (NgGspG1) lacking the N-terminal hydrophobic part (domain or fragment)” was tested. Which Kd did it give?
**A.** 216 nM
